Test results: article PMC6887587

Key:
[1] = target: FHR4/VHH(T) trifunctional heteromultimer, Clone 2E3 (first single-cell sorting) (human) (UniProt P04003); assay: SPR; Biacore 3000, CM5 chip; 10 000 RU of purified multimer immobilised by amine coupling; C3b 2.5, 5, 10 and 20 µg/mL injected in HBS-EP (10 mM Hepes pH 7.4, 150 mM NaCl, 3 mM EDTA, 0.05% P20) with 20 mM MgCl2, 5 min at 30 µL/min, 5 min dissociation; 1:1 Langmuir fit
[2] = target: FHR4/VHH(T) trifunctional heteromultimer, Clone IA3 (third single-cell sorting) (human); assay: as above

Sequence of UniProt P04003 (P04003 whole entry, looked up, one chain of several): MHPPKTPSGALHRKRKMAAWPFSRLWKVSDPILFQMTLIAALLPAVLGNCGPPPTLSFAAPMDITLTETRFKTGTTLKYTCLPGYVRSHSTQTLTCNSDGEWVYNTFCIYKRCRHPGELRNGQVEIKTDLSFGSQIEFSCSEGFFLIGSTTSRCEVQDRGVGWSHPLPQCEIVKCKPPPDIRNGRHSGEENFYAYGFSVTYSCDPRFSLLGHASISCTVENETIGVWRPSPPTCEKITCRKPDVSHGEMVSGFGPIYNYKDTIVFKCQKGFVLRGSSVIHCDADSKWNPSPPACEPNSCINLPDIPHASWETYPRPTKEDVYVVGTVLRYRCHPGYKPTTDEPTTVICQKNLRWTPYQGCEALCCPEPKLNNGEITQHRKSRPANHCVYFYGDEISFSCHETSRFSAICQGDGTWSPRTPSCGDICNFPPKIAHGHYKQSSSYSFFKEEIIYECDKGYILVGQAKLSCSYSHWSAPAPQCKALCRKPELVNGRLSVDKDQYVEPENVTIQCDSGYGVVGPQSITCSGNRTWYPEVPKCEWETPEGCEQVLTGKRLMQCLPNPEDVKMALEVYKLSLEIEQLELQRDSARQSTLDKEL

## C3b (from UniProt P01024 749-1663; P01024 749-1663) (natural protein)
[1]
  Ka: 3.65e+06 M⁻¹
  Kd: 0.274 µM
  final C3b binding (RU): 58 RU
  maximum C3b binding at 20 µg/mL C3b (RU): 100 RU
[2]
  Ka: 4.48e+06 M⁻¹
  Kd: 0.223 µM
  final C3b binding (RU): 78.6 RU
  maximum C3b binding at 20 µg/mL C3b (RU): 136 RU
